The record followed here is US7067474B1, “Agents for treating human illnesses based on β-catenin, and the production and use thereof” (Max-Delbruck-Centrum fur Molekulare Medizin, priority 1998, dated 2006).

Positions count from the first letter of the chain named. Where no end group is shown, it is not given here.

First the molecules themselves.
T1: β-catenin (Homo sapiens, UniProt P35222)
T1 construct: expressed in transfected cells; host or cells: yeast (two-hybrid system, Clontech)
T1 sequence (P35222 1-781): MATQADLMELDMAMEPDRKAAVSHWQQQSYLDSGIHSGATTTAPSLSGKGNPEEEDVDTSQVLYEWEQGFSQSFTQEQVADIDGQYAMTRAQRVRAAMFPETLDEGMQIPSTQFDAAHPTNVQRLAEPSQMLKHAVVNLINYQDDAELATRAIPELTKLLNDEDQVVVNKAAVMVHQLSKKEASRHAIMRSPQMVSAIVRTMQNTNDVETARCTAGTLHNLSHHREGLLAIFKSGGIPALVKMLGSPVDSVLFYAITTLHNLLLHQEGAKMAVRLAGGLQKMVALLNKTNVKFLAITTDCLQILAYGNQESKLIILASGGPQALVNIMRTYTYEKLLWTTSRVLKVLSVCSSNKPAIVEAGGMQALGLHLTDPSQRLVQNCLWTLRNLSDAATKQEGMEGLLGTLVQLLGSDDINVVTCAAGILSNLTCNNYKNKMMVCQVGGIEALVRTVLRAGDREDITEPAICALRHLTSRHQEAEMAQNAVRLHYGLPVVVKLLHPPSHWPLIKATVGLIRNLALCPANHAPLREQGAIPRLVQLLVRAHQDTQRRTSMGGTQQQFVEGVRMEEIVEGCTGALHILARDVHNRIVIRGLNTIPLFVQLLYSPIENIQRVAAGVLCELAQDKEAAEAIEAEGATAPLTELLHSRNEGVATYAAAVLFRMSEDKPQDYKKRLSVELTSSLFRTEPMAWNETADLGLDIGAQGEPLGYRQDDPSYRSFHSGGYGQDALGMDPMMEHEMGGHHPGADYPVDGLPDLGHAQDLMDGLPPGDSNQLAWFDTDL

B1: 17–34: LEF-1 fragment amino acids 17–34, Lex-A hybrid (protein)
chain: MKALTARQQEVFDLIRDHISQTGMPPTRAEIAQRLGFRSPNAAEEHLKALARKGVIEIVSGASRGIRLLQEEEEGLPLVGRVAAGEPLLAQQHIEGHYQVDPSLFKPNADFLLRVSGMSMKDIGIMDGDLLAVHKTQDVRNGQVVVARIDDEVTVKRLKKQGNKVELLPENSEFKPIVVDLRQQSFTIEGLAVGVIRNGDWLATDEMIPFKDEGDPQKEK
B2: 11–27: LEF-1 fragment amino acids 11–27, Lex-A hybrid; minimum binding domain for β-catenin (protein)
chain: MKALTARQQEVFDLIRDHISQTGMPPTRAEIAQRLGFRSPNAAEEHLKALARKGVIEIVSGASRGIRLLQEEEEGLPLVGRVAAGEPLLAQQHIEGHYQVDPSLFKPNADFLLRVSGMSMKDIGIMDGDLLAVHKTQDVRNGQVVVARIDDEVTVKRLKKQGNKVELLPENSEFKPIVVDLRQQSFTIEGLAVGVIRNGDWLGDPELCATDEMIPFKDE
B3: 11–23: LEF-1 fragment amino acids 11–23, Lex-A hybrid (protein)
chain: MKALTARQQEVFDLIRDHISQTGMPPTRAEIAQRLGFRSPNAAEEHLKALARKGVIEIVSGASRGIRLLQEEEEGLPLVGRVAAGEPLLAQQHIEGHYQVDPSLFKPNADFLLRVSGMSMKDIGIMDGDLLAVHKTQDVRNGQVVVARIDDEVTVKRLKKQGNKVELLPENSEFKPIVVDLRQQSFTIEGLAVGVIRNGDWLGDPELCATDEMIP
B4: human β-catenin (Leu218-Leu781) mutant Arg 274 to alanine, Gal-4 activation domain fusion (other, not shown: large carriers; small tags and cut ends)
chain: LHNLSHHREGLLAIFKSGGIPALVKMLGSPVDSVLFYAITTLHNLLLHQEGAKMAVALAGGLQKMVALLNKTNVKFLAITTDCLQILAYGNQESKLIILASGGPQALVNIMRTYTYEKLLWTTSRVLKVLSVCSSNKPAIVEAGGMQALGLHLTDPSQRLVQNCLWTLRNLSDAATKQEGMEGLLGTLVQLLGSDDINVVTCAAGILSNLTCNNYKNKMMVCQVGGIEALVRTVLRAGDREDITEPAICALRHLTSRHQEAEMAQNAVRLHYGLPVVVKLLHPPSHWPLIKATVGLIRNLALCPANHAPLREQGAIPRLVQLLVRAHQDTQRRTSMGGTQQQFVEGVRMEEIVEGCTGALHILARDVHNRIVIRGLNTIPLFVQLLYSPIENIQRVAAGVLCELAQDKEAAEAIEAEGATAPLTELLHSRNEGVATYAAAVLFRMSEDKPQDYKKRLSVELTSSLFRTEPMAWNETADLGLDIGAQGEPLGYRQDDPSYRSFHSGGYGQDALGMDPMMEHEMGGHHPGADYPVDGLPDLGHAQDLMDGLPPGDSNQLAWFDTDL
B5: human β-catenin (Leu218-Leu781) mutant His 470 to alanine, Gal-4 activation domain fusion (other, not shown: large carriers; small tags and cut ends)
chain: B4 chain with A57R, H253A
B6: human β-catenin (Leu218-Leu781) mutant His 260 to alanine, Gal-4 activation domain fusion (other, not shown: large carriers; small tags and cut ends)
chain: B4 chain with H43A, A57R
B7: human β-catenin (Leu218-Leu781) mutant Arg 342 to alanine, Gal-4 activation domain fusion (other, not shown: large carriers; small tags and cut ends)
chain: B4 chain with A57R, R125A
B8: human β-catenin (Leu218-Leu781) mutant Lys 354 to alanine, Gal-4 activation domain fusion (other, not shown: large carriers; small tags and cut ends)
chain: B4 chain with A57R, K137A
B9: human β-catenin (Leu218-Leu781) mutant Lys 345 to alanine, Gal-4 activation domain fusion (other, not shown: large carriers; small tags and cut ends)
chain: B4 chain with A57R, K128A
B10: human β-catenin (Leu218-Leu781) mutant Arg 469 to alanine, Gal-4 activation domain fusion (other, not shown: large carriers; small tags and cut ends)
chain: B4 chain with A57R, R252A

The first assay relates to β-catenin/TCF-4 complex. Kind of assay: ELISA with synthetic peptides: formation of the β-catenin/TCF-4 complex. It is filed as binding. The following applies: synthetic TCF4 peptides, analogous to LEF-1 peptides, which inhibit specifically. (In general: In an ELISA, binding on a coated surface is turned into a signal by an enzyme label.)
GGDDLGANDELISFKDEGEQEEK [7–29]: the “inhibition of formation of the β-catenin/TCF-4 complex” value was “Analogous principles apply”.
On the same count and under the same terms, next, DLGANDELISFKDE [10–23]: “Analogous principles apply”.

The next assay deals with T1, β-catenin. Kind of assay: yeast-2-hybrid system: interaction of LEF-1 fragments with β-catenin (β-galactosidase reporter activity). It is filed as binding. As to conditions: LEF-1 fragments as Lex-A hybrids. As for the experimental part: The ‘yeast-2-hybrid system’ was used for identifying the minimum binding domain (FIG. 1). It was possible to limit the minimum binding domain to the N-terminal amino acids 11–27 of LEF-1 which corresponds t) the amino acids 7–29 in TCF-4 (FIG. 2). The interaction of N-terminal LEF-1 fragments with β-catenin was detected by means of activating a lacZ reporter gene (s. example).
The interaction between the partial domains of LEF-1 and β-catenin was analyzed in the yeast-2 hybrid system by determining the activity of β-galactosidase according to information of the producer (Clontech) (FIG. 1). For this purpose the DNA coding for the N-terminal partial domains of LEF-1 was inserted into the cloning site of the Lex-A DNA binding domain which contains vector BTM 116 and checked by sequencing. The DNA fragments of LEF-1 were prepared by a polymerase chain reaction (PCR) and incubation with restriction endonucleases. The DNA coding for β-catenin was cloned into the vector pGAD424 (Clontech) for the activation domain of GAL-4 (Behrens et al. 1996). The β-galactosidase activities of independent experiments were averaged (or comparing the interaction of the hybrids.
The specificity of the interaction of the LEF-1 hybrids with β-catenin was checked by means of the β-galactosidase activity of yeasts producing the LEF hybrids and the GAL-4 activation domain without β-catenin (FIG. 1). The expression of the LEF-1 hybrids was checked in an immunoblot with yeast cell lysates by antibodies (Clontech) as against the Lex-A domain of the hybrids. Equal yeast quantities were used for preparing the lysates after determining the optical density of the cultures.
The interaction of fragments of the binding domain of LEF-1 with β-catenin was analyzed by means of the β-galactosidase reporter activity in the yeast-2-hybrid system. […] Accordingly, the minimum binding domain of LEF-1 for β-catenin consists of 17 amino acids (11–27) showing an acidic character.
Consider “Met21 up to Val 56: partial domain of LEF-1 covering Met21 up to Val 56”, for which the “Binding to β-catenin (β-galactosidase reporter activity)” value is “does not show any binding activity”.
The same measure, in the same setting: the value for B1 was “prevent the interaction”.
B2: the “Binding to β-catenin (β-galactosidase reporter activity)” value is listed as “does not result in a loss of bond”.
Same read-out and setting: next, B3: “prevent the interaction”.

Another assay addresses human APC amino acids Ser1259-Asp1400 (APC 20 amino acid repeats) fused to Lex-A (vector BTM 116) (human). Kind of assay: yeast 2-hybrid, β-galactosidase reporter; percent of wild type β-catenin.
Conditions: not given
Molecule B4 gave a share of the interaction with wild type β-catenin in percent of 40%.
Take B5: the share of the interaction with wild type β-catenin in percent was determined as 47%.
On the same count and under the same terms, next, B6: 40%; B7: 29%.

For a further assay, the target named is human APC amino acids His1012-Glu1215 (APC 15 amino acid repeats) fused to Lex-A (vector BTM 116) (human). The assay is described as above.
Conditions: not given
Consider B5, for which the share of the interaction with wild type β-catenin in percent worked out at 60%.
B8: the share of the interaction with wild type β-catenin in percent is 54%.
On the same count and under the same terms, the value for B6 was 100%.

For another assay, the target named is conductin amino acids Ala342-Arg465 fused to Lex-A (vector BTM 116) (UniProt P0A7C2). The assay is described as above.
Conditions: not given
Molecule B4 registered a share of the interaction with wild type β-catenin in percent of 29%.
The same measure, in the same setting: the value for B9 was 22%; that for B8 was 43%; that for B6 was 10%.
On the same count and under the same terms, next, B7: 20%.

Another assay addresses E-cadherin amino acids Gln773-Asp884 (cytoplasmatic domain) fused to Lex-A (vector BTM 116) (UniProt P0A7C2 1-202; P09803 773-884). Described as above.
Conditions: not given
As for the experimental part:
(§1) 4. Preparation and testing of mutants of β-catenin modulating the interaction with LEF-1, APC, conductin or E-cadherin The mutagenesis of β-catenin in the armadillo repeats 3–8 was carried out by means of the "mutagenesis kit" of the company Clontech according to the producer's record and the mutants were checked by sequencing (FIG. 5). In all mutants the original amino acid was substituted by alanine. For analyzing the interactions the cDNA of human β-catenin (armadillo repeat 3 up to the C-terminal end of the protein) coding for the amino acids Leu218–Leu7 µl or its mutants was cloned into the fusion vector for the activation domain of Gal-4 (pGAD424, Clontech). The cDNA for the binding domains of the interaction partners was cloned into the Lex-A fusion vector BTM 116. To this end, the cDNA of LEF-1 for the amino acids 1–99, conductin for the amino acids Ala342–ARG465; of human APC for the amino acids His1012–Glu1215 (APC 15 amino acid repeats) and for the amino acids Ser1259Asp 1400 (APC 20 amino acid repeats) and E-cadherin for the amino acids Gin773–Asp884 (cytoplasmatic domain) were amplified with the respective primers PCR. The interaction of the Lex-A hybrids with β-catenin and its mutants was quantified by means of the β-galactosidase reporter activity in the yeast 2-hybrid system (report: "Matchmaker". Clontech) (Tab. 2 and FIG. 6).
For the molecule B4, the “share of the interaction with wild type β-catenin in percent” value (“share of the interaction … in percent” for short) came to 50%.
Consider B9, for which the “share of the interaction … in percent” value is 27%.
As to B10, the “share of the interaction … in percent” value worked out at 50%.
Take B8: the “share of the interaction … in percent” value is 40%.
In the case of B6, the “share of the interaction … in percent” value was 100%.
Same read-out and setting: the value for B7 was 41%.

In a further assay the target is T2, LEF-1 amino acids 1-99 fused to Lex-A (vector BTM 116) (UniProt P0A7C2 1-202; P27782 1-99).
T2 construct: Order of the fusion follows the vector; also called LEF-1/TCF-4
The description is as above.
Conditions: not given
The method, then:
as §1
With B9, the “share of the interaction … in percent” value stood at 38%.
B5: the “share of the interaction … in percent” value turned out to be 2%.
The same measure, in the same setting: the value for B10 was 17%; that for B8 was 38%; that for B6 was 50%.
